Results on 3 molecules are retold here after paper PMC13138344, “Embryonic stem cell factors DPPA2/4 amplify active H3K4me3–H2AK119ub chromatin domains in non-small cell lung cancer” (Genes & Development, 2026).

B2: recombinant His-DPPA4 protein (natural protein, human, UniProt Q7L190 1-304, looked up)
chain: MLRGSASSTSMEKAKGKEWTSTEKSREEDQQASNQPNSIALPGTSAKRTKEKMSIKGSKVLCPKKKAEHTDNPRPQKKIPIPPLPSKLPPVNLIHRDILRAWCQQLKLSSKGQKLDAYKRLCAFAYPNQKDFPSTAKEAKIRKSLQKKLKVEKGETSLQSSETHPPEVALPPVGEPPALENSTALLEGVNTVVVTTSAPEALLASWARISARARTPEAVESPQEASGVRWCVVHGKSLPADTDGWVHLQFHAGQAWVPEKQEGRVSALFLLPASNFPPPHLEDNMLCPKCVHRNKVLIKSLQWE
notes: DPPA4, human, recombinant; The construct is named only in the EMSA legend; also called recombinant DPPA4; source: recombinant

The target of data set [1] is T1, developmental pluripotency-associated 2 (DPPA2) (human (endogenous in NCI-H661), UniProt Q7Z7J5 1-298).
T1 construct: DPPA2, human, endogenous in NCI-H661 non-small cell lung cancer cells; source: endogenous, NCI-H661 whole-cell lysate (IP-MS); endogenous, NCI-H661 double-cross-linked chromatin (RIME)
T1 sequence (looked up): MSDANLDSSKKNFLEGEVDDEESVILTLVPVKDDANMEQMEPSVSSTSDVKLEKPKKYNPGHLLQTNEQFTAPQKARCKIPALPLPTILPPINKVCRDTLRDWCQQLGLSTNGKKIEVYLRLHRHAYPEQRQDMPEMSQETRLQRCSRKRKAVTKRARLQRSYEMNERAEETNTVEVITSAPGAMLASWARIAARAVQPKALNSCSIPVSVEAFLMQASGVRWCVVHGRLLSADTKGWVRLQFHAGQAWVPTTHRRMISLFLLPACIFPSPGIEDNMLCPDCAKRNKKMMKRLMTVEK
Nature of the data set: affinity purification with mass spectrometry; IP of endogenous DPPA2 or DPPA4 from NCI-H661 whole-cell lysates, species-matched IgG IP control, label-free quantitation, n = 4 per condition. Particulars: partners not purified.

Data set [2] deals with the molecule itself. Description: mass photometry; recombinant DPPA2 and DPPA4 in vitro, each on its own and together.
Data set [3] deals with B2. The description is as above. To be noted: both partners purified.

B1: developmental pluripotency-associated 4 (DPPA4) (natural protein, human (endogenous in NCI-H661), UniProt Q7L190 1-304, looked up)
chain: MLRGSASSTSMEKAKGKEWTSTEKSREEDQQASNQPNSIALPGTSAKRTKEKMSIKGSKVLCPKKKAEHTDNPRPQKKIPIPPLPSKLPPVNLIHRDILRAWCQQLKLSSKGQKLDAYKRLCAFAYPNQKDFPSTAKEAKIRKSLQKKLKVEKGETSLQSSETHPPEVALPPVGEPPALENSTALLEGVNTVVVTTSAPEALLASWARISARARTPEAVESPQEASGVRWCVVHGKSLPADTDGWVHLQFHAGQAWVPEKQEGRVSALFLLPASNFPPPHLEDNMLCPKCVHRNKVLIKSLQWE
notes: DPPA4, human, endogenous in NCI-H661 non-small cell lung cancer cells; source: endogenous, NCI-H661 whole-cell lysate (IP-MS); endogenous, NCI-H661 double-cross-linked chromatin (RIME)
As to B1, the “ratio between DPPA2 and DPPA4 (iBAQ) in the DPPA2 IP” value in data set [1] is greater than 1.

In the case of B2, in data set [2], the binding result is “binds”.

B3: recombinant DPPA2-Myc/FLAG protein (natural protein, human, UniProt Q7Z7J5 1-298, looked up)
chain: MSDANLDSSKKNFLEGEVDDEESVILTLVPVKDDANMEQMEPSVSSTSDVKLEKPKKYNPGHLLQTNEQFTAPQKARCKIPALPLPTILPPINKVCRDTLRDWCQQLGLSTNGKKIEVYLRLHRHAYPEQRQDMPEMSQETRLQRCSRKRKAVTKRARLQRSYEMNERAEETNTVEVITSAPGAMLASWARIAARAVQPKALNSCSIPVSVEAFLMQASGVRWCVVHGRLLSADTKGWVRLQFHAGQAWVPTTHRRMISLFLLPACIFPSPGIEDNMLCPDCAKRNKKMMKRLMTVEK
notes: DPPA2, human, recombinant; The construct is named only in the EMSA legend; source: recombinant
Consider B3, for which the binding result in data set [3] and in data set [2] was “binds” throughout.
